Values quoted from earlier work as cited in US5977174A, “Cholinergic compositions and uses thereof” (Neuromedica, Inc., priority 1997, dated 1999).

B1: C84S tPA: tPA variants in which a cysteine at position 84 of the growth factor domain of native tPA is replaced by serine (protein, UniProt P00750 36-562, looked up, variant C84S)
Tissue-type plasminogen …: SYQVICRDEKTQMIYQQHQSWLRPVLRSNRVEYCWCNSGRAQCHSVPVKSCSEPRCFNGGTCQQALYFSDFVCQCPEGFAGKCSEIDTRATCYEDQGISYRGTWSTAESGAECTNWNSSALAQKPYSGRRPDAIRLGLGNHNYCRNPDRDSKPWCYVFKAGKYSSEFCSTPACSEGNSDCYFGNGSAYRGTHSLTESGASCLPWNSMILIGKVYTAQNPSAQALGLGKHNYCRNPDGDAKPWCHVLKNRRLTWEYCDVPSCSTCGLRQYSQPQFRIKGGLFADIASHPWQAAIFAKHRRSPGERFLCGGILISSCWILSAAHCFQERFPPHHLTVILGRTYRVVPGEEEQKFEVEKYIVHKEFDDDTYDNDIALLQLKSDSSRCAQESSVVRTVCLPPADLQLPDWTECELSGYGKHEALSPFYSERLKEAHVRLYPSSRCTSQHLLNRTVTDNMLCAGDTRSGGPQANLHDACQGDSGGPLVCLNDGRMTLVGIISWGLGCGQKDVPGVYTKVTNYLDWIRDNMRP
in vivo half life vs native tPA: longer in vivo half life than native tPA
